The source of these data is the DeepSol protein solubility set.

The nature of this data set: soluble on expression in E. coli; label from the status in PepcDB or PDB records.
For “MELVHEIAIDPNFQIPDKPTNAIQRCVQESMHKAYYNQLRRDLAKDPPELEYCFSFLMEVKTMILDDILTAQHTRLKAEINSMLDETALRGKLDQGQLDIKKVMKYIVDLCSRLCSPARDVKVAELRTRTDVIDIFEGTMDLLELMKNDLTNYQISQNRAAIEEYSSKHEYDMFQKFLIENPNGCYFARQWLKAAYDELFEKKLDAEGEETSVKKERKNEDTDTVLIDTTSRGYTKLIQVNEYDGFPETLKIDKIKIELLAEKFLQIVMCASSVFVTCNVAGKQISESADFKKTLKDHLIVITNNTDEERIKSDLEKIGEQCVKEAVDTSKKLNIEWNTESSTSIRNQINALISSDNPIRKLVHTRVSTFVEEMLRSPTSVPHRLLPGLSVIQSELCAFTSKFLRLCVHNRKTFYAMYSNLIQEFQGHTPSTHAIYRADSPSSMPGPSTSA”, the “soluble on expression in E. coli” value is given as “not soluble”. The same measure for “MEMKNVKGTKDYLPEEQVLRNKIKRACEDTFERYGCKPLETPTLNMYELMSYKYGGGDEILKEIYTLQDQGKRNLALRYDLTIPFAKVVAMNPNIRLPFKRYEIGKVFRDGPIKQGRFREFIQCDVDIVGVESVMAEAELMSMAFELFRTLNLEVTIQYNNRKLLNGILESINIPTERTSDVILSLDKIEKIGIDGVRKDVLERGISEEMADTICNTVLSCLKLTIADFKEAFNNPLVADGVNELQQLQQYLIALGINENAIFNPFLARGLTMYTGTVYEIFLKDGSITSSIGSGGRYDNIIGAFRGDNMNYPTVGISFGLDVIYTALSQKETISSTADVFIIPLGTELQCLQIAQQLRSTTSLKVELELAGRKLKRALNYANKENIPYVLIIGEDELSTETVVLRNMKEGSEVKVPLSSLKDNTFNNYCNIPIKL”: “soluble”; for “MEMSHRSSYFQSIIDEAGSLLRELMNIPDEYEVLFLQGGASLQFSMIPLNLMNTYKKAGYVLTGSWSKKALQEAEKVGEVQVIASSENEKFTTIPKLDGLLGDEKLDYVHITTNNTIEGTKYVDIPHVDKVPLVADMSPNILSERYDVSKFGLIYAGAQKNLGPAGLTIAIIKRDLIGGADRYCPTMLNYETYSKNNSLYNTLPSFSIYVTKLVLEWLKEQGGVSAIEEQNKMKSSLLYNFLDESKLLTSPVDPAYRSLMNIPFTTPSEELNNEFLQKAKERGLVTLKGHRSVGGMRASIYNAMPVQGVQQLVNYMKEFELENR”: “not soluble”; for “MENDLKKLTKEIVGRLKNKSVKELLSYAIFNEEEEAKFYADLAEKVSRPSVKALFRRMSEESKVHELLLRKLFSKYFPGEEPVKVDVPPVEVVPFISKFESIEDYLEGLRYCMESELFAKRTYVLLSQVAENEGVRMVANELASIEQNHYEEIKAVYELVKTFRDREMLPESLKSGAYLITNESVGKYLILDLIDENKKLKLFVRENPEIFRRLIGENPNVEITWIAKVNAPNTISPTETHVLKKDIESFFEKVTKEGKKGVVFIQNVAYLVANLGFKETVDLLLHAKDLAVYYGGYLIITANPEVFEKTEWALLKLEFEVLF”: “not soluble”. For “MENEVVFFCRKCNHHLFAKNPMINTLKVISEMDCPNCGEEGYHNWILSHIGDSEKEKENYNWKLEHHHHHH” the value was “soluble”.

With “MENFIDTLENWRDQKQIISVICKDGIKIDDSIITSFKASKDVGISNGLRIQLTFQEINFKAIVGQTDVSAATGRTSTTNDGGATSKKNTGNTTTSLGSPMLTCKELFSYSASELSDEALKARVTCSKSVSVKNGESTFTA”, the “soluble on expression in E. coli” value is “not soluble”. In the case of “MENILDYNEAELKQWMDKNGEKTFRAKQFFDWIYNGTFDFKDMKNLPQSTRERLEKNFYIGMPSVVKRLNSKKGDTVKFLFRYNDGNIIECVVMKYDYGNSICISTQVGCRMGCSFCASTIGGRVRDLTSGEILAQILKAQKEIGERISNIVLMGSGEPLDNYDNVIKFIRIVNSEKGLNIGQRHITLSTCGIVPRIYDLMKENLQITLAISLHASDDETRKKIMPIANRYSISEIIDCCKKYSDFTGRRITFEYSLVKDVNDDKESAKKLGELLSGMLCHVNLIPVNTVNETSYEKPESSKIKKFCDTLLKYKIESTIRKEMGADINAACGQLRRNYIEESEGK”, the “soluble on expression in E. coli” value is given as “not soluble”.

“MENKSIAIFIDAENIPAKYAKSIFDIASDYGEVIIKRIYGDWTQKNIQGWREQIAEYSLIAMQQFNFAANKNSSDMYLITEIMSIFYEKNIDIFVIVSSDSDYTSLIQKLRENKKQVIGMGLEKSIKSYVNAFSEFFYLDKDESKKEDILSKDYLRALINITEQLIDEKGRAEYAQIRTNMNRKYSDFHPQNYGFKNFRALIQKFLPKMKKFEEEREKNIYFLVKKDYESYYLEHHHHHH”: the “soluble on expression in E. coli” value is “not soluble”. For “MENTENSVDSKSIKNLEPKIIHGSESMDSGISLDNSYKMDYPEMGLCIIINNKNFHKSTGMTSRSGTDVDAANLRETFRNLKYEVRNKNDLTREEIVELMRDVSKEDHSKRSSFVCVLLSHGEEGIIFGTNGPVDLKKITNFFRGDRCRSLTGKPKLFIIQACRGTELDCGIETDSGVDDDMACHKIPVDADFLYAYSTAPGYYSWRNSKDGSWFIQSLCAMLKQYADKLEFMHILTRVNRKVATEFESFSFDATFHAKKQIPCIVSMLTKELYFYH” the value was “soluble”; for “MEPHKVVPLSKPHPPVVGKVTHHSIELYWDLEQKEKRQGPQEQWLRFSIEEEDPKMHSYGVIYTGYATRHVVEGLEPRTLYKFRLKVTSPSGEYEYSPVVSVATTRE”, “soluble”; for “MEPLMNQSLHICGCCKRELPHEAFYTNKRTGTLDNYCKECRKANTRKRRDLRRCTSFENKPVSYPVITEVKDPALRMLLILHARQVVAESISRKQEKEKLNTLWEE”, “not soluble”. The same measure for “MEPLSHRGLPRLSWIDTLYSNFSYGTDEYDGEGNEEQKGPPEGSETMPYIDESPTMSPQLSARSQGGGDGVSPTPPEGLAPGVEAGKGLEMRKLVLSGFLASEEIYINQLEALLLPMKPLKATATTSQPVLTIQQIETIFYKIQDIYEIHKEFYDNLCPKVQQWDSQVTMGHLFQKLASQLGVYKAFVDNYKVALETAEKCSQSNNQFQKISEELKVKGPKDSKDSHTSVTMEALLYKPIDRVTRSTLVLHDLLKHTPVDHPDYPLLQDALRISQNFLSSINEDIDPRRTAVTTPKGETRQLVKDGFLVEVSESSRKLRHVFLFTDVLLCAKLKKTSAGKHQQYDCKWYIPLADLVFPSPEESEASPQVHPFPDHELEDMKMKISALKSEIQKEKANKGQSRAIERLKKKMFENEFLLLLNSPTIPFRIHNRNGKSYLFLLSSDYERSEWREAIQKLQKKDLQAFVLSSVELQVLTGSCFKLRTVHNIPVTSNKDDDESPGLYGFLHVIVHSAKGFKQSANLYCTLEVDSFGYFVSKAKTRVFRDTAEPKWDEEFEIELEGSQSLRILCYEKCYDKTKVNKDNNEIVDKIMGKGQIQLDPQTVETKNWHTDVIEMNGIKVEFSMKFTSRDMSLKRTPSKKQTGVFGVKISVVTKRERSKVPYIVRQCVEEVEKRGIEEVGIYRISGVATDIQALKAVFDANNKDILLMLSDMDINAIAGTLKLYFRELPEPLLTDRLYPAFMEGIALSDPAAKENCMMHLLRSLPDPNLITFLFLLEHLKRVAEKEPINKMSLHNLATVFGPTLLRPSEVESKAHLTSAADIWSHDVMAQVQVLLYYLQHPPISFAELKRNTLYFSTDV”: “soluble”. For “MEPVTSSEREAELERELDLLRKELNIEQKMNSELKRLMIATLSDELQGQVEALTEDKVRLAHRVDEYMGKLMVEDEESDRLRIDRDVWKCKFLAQSIRCDELTSKNEYLLKTLVGIQQAVKTKNVTSDEISDFTQLDLQPLFHRSPCEERVRPITAKYTNLTIACCKNCMGRDIQLL” the value was “not soluble”; for “MEQDDPSGEWPLIAALPVRQDVPVDALLADVAAQLAAEGLRTAGFLQRDGVRLEDLTSGALYPITQDLGPGSSGCRLDPAGLALAAAAGLAALERGADLLVIPRFGKAEIEGEGMRGVIGRACELGVPTLVGVRQSAEPAWETFAGGLAEWIAPERQAVAGWCRTACAPVRCRTLEHHHHHH”, “not soluble”; for “MEQETLEQVHLTEDGGVVKTILRKGEGGEENAPKKGNEVTVHYVGKLESSGKVFDSSRERNVPFKFHLGQGEVIKGWDICVASMTKNEKCSVRLDSKYGYGEEGCGESIPGNSVLIFEIELISFRE”, “soluble”. Regarding “MEQKFCQSCGMPLNPEVLGTEKDGSKNEEYCTYCYADGHFTVECTMDEMINQCAQFVDEFNKGSEVKMTKEEAIANMKQFFPMLKRWKQ”, the “soluble on expression in E. coli” value is reported as “not soluble”.

Regarding “MEQKTENKWPLQFEVIEEIKQVGRWSAPSWRLGDIHLYEKVNETQDNVSLFERDLEIFRDERTDYRFNLSSQDPKLFFAFENDNDQLTPVMITASQSMIGQYMDGDYLVLSTAMPLPMQAWLEAYIGKHGELLEVRKKKRKGAGRASEQLPK”, the “soluble on expression in E. coli” value was “not soluble”. For “MEQLKKQVCDYIESHEEESVKFLKRLIQEKSVSGDESGAQAIVIEKLRELGLELDIWEPSFSKMKDHPYFVSPRTSFSDSPNIVATLKGSGDGKSMILNGHIDVVPEGDVNQWEHHPYSGEKIGNRIYGRGTTDMKGGNVALMLAMEAIIESNIELKGDIYFQSVIEEESGGAGTLATILRGYKADGVIIPEPTNMKFFPKQQGSMWFRLRVKGKAAHGGTRYEGVSAIEKSMFVIEHVRKLEEKRNSRITDPLFKEIPIPIPINIGKIEGGSWPSSVPDELILEGRCGVAPNETIEAAKEEFENWIAELNDVDNWFVENPVEVEWFGARWVPGELEENHELITTLHHNFVEIEGNEPIIEASPWGTDGGLFTQIANVPTIVFGPGETKVAHYPNEYIEVDKMIAAAKIIACTLLDWCEVKK” the value was “not soluble”; for “MEQQPQLNDHNKQEYPPMHTAEHLLNATMVKTFGCPRSRNAHIERKKSKCDYILPTCPTDAEIQAIEDKVNEVISQNLPVTVEFMTHEQAKGIVDLSKLPADASETLRIIRIGDYDACACIGLHVSNTSEVGTFKIISHDYNEERQTLRLRFKLIEKK”, “not soluble”. As to “MEQSFTADINEINITNGKLDFSDSSLTPKFSAGIYSLNGDITGLSSNEDSRAKIDLKGKVDKYAPVIIKGSVNPLSHDAFTDIDMLFNGIELTTFTPYSGKFAGYAIDKGKLSLGLNYKLSNNKLVAENNVTLDQLTLGEVVNSEEATSLPIKFALSLLKDSDGLEHHHHHH”, the “soluble on expression in E. coli” value is listed as “soluble”. With “MERAHRIDLKLLRYFLAVAEELHFGRAAARLNMSQPPLSIHIKELEQQLGTLLFIRHSRSVALTHAGKVLMEESRRLLASANQALARVEQIGRGEAGRIELGVVGTALWGRMRPAMRHFLKANPNVEVLFREKSPGMQMALLERRELDAGIWRMAIEPAVGFTSIRLHESAFMVAVPEDHDLASRDSVPLAALRNEYFVTLPSVHSDWGFLQRVCQQAGFSPMIIREVVEPQTVLAMISMGIGITLMADGYAQMSWPGVVFRPLEERIPADLYIVYDQQQATPALEKLVAALTV”, the “soluble on expression in E. coli” value is listed as “not soluble”. For “MERGPLIFSASIGNGHNQAAKALQVEFQNKGYQPEIIDTFYSLSPALHKFMLTSYVNLLKVGPRIWQKIYFQAEKYPLFLFLDQFATFFVESLHATVKSNRCSFLVSTHPFVTAFLVRLKSKKQLNLPLYTVITDFVLHPAYLRPEIDGYFTSDPNFTDFAKLNNVSDDRFFPTGIPIPNLESIDQPKWKVRNDLGLDPQRKVLIIAGGGIGLTNYAQVIRALECLPEPIQLLCMIGHNYQVKEKISRIKSKHELKVIEFTDKFLLYLKASDAILSKAGGLTMAESLVCETPIIIHQPVPGHEEHNAKFLIDAGAALRVKGSKEIPTTIKRVLYEEACFGPMIENARKLKKPNAANEIVEQMLLLVKEQQHAFRLEHHHHHH” the value was “soluble”.
